This note sets out measurements from article PMC3338918 (Angiogenesis, 2012).

The target in the assay is T1, hVEGFR3-hFc (human, UniProt P35916 25-775).
T1 construct: human VEGFR3; source: bought: R&D Systems
T1 sequence (looked up): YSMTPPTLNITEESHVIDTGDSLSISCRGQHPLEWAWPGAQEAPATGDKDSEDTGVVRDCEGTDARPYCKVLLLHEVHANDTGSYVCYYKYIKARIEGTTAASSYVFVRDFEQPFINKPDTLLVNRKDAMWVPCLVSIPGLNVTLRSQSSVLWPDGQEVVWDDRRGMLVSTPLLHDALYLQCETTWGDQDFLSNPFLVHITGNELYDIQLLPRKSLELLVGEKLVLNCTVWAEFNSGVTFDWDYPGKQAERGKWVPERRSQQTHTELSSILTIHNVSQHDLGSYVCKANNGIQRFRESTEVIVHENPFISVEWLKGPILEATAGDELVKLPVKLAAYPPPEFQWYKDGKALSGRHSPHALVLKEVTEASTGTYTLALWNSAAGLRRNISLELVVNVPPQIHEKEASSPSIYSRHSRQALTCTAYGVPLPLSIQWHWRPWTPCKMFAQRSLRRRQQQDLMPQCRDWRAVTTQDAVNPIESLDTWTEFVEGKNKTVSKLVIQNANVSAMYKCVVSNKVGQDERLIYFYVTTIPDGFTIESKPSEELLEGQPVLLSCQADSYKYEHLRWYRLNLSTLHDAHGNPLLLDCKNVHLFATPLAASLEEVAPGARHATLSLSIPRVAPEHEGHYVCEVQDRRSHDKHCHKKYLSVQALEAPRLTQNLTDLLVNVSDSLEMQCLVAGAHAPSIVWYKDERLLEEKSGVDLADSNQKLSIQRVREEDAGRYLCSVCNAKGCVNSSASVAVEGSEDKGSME
Briefly: SPR; Biacore 3000, CM5 chip, 25°C, HBS-T (10 mM Hepes, 150 mM NaCl, 3.4 mM EDTA, 0.05% polysorbate 20, pH 7.4); VEGF Trap or receptor-Fc captured at low density on amine-coupled Protein A, ligands injected (1.0–0.062 nM VEGF-A, 2.5–0.156 nM VEGF-B(10-108), 5.0–0.078 nM PlGF); kd of VEGF-A ligands by the 'fixed kd' procedure on a Biacore 2000 (~2–3 h); KD = kd/ka. To be noted: both partners purified. (Surface plasmon resonance follows binding to a sensor surface in real time, without labels.)

B1: human VEGF-D (ligand, UniProt O43915 89-205, looked up)
chain: FAATFYDIETLKVIDEEWQRTQCSPRETCVEVASELGKSTNTFFKPPCVNVFRCGGCCNEESLICMNTSTSYISKQLFEISVPLTSVPELVPVKVANHTGCKCLPTAPRHPYSIIRR
notes: human VEGF-D; source: bought: R&D Systems
As for B1, the binding result is given as “binds”.

B2: human VEGF-C (ligand, UniProt P49767 112-227, looked up)
chain: AHYNTEILKSIDNEWRKTQCMPREVCIDVGKEFGVATNTFFKPPCVSVYRCGGCCNSEGLQCMNTSTSYLSKTLFEITVPLSQGPKPVTISFANHTSCRCMSKLDVYRQVHSIIRR
notes: human VEGF-C; source: bought: R&D Systems
For the molecule B2, the binding result was “binds”.
